# B1: human mitochondrial malate dehydrogenase (hMDH2), wild type (enzyme, UniProt P40926-1 25-338, looked up)
# chain: AKVAVLGASGGIGQPLSLLLKNSPLVSRLTLYDIAHTPGVAADLSHIETKAAVKGYLGPEQLPDCLKGCDVVVIPAGVPRKPGMTRDDLFNTNATIVATLTAACAQHCPEAMICVIANPVNSTIPITAEVFKKHGVYNPNKIFGVTTLDIVRANTFVAELKGLDPARVNVPVIGGHAGKTIIPLISQCTPKVDFPQDQLTALTGRIQEAGTEVVKAKAGAGSATLSMAYAGARFVFSLVDAMNGKEGVVECSFVKSQETECTYFSTPLLLGKKGIEKNLGIGKVSSFEEKMISDAIPELKASIKKGEDFVKTLK
# B2: human cytosolic malate dehydrogenase, splice variant 3 (hMDH1V3) (enzyme, UniProt P40925-3 1-352, looked up)
# chain: MGRRCSYFPKDVTVFDKDDKSEPIRVLVTGAAGQIAYSLLYSIGNGSVFGKDQPIILVLLDITPMMGVLDGVLMELQDCALPLLKDVIATDKEDVAFKDLDVAILVGSMPRREGMERKDLLKANVKIFKSQGAALDKYAKKSVKVIVVGNPANTNCLTASKSAPSIPKENFSCLTRLDHNRAKAQIALKLGVTANDVKNVIIWGNHSSTQYPDVNHAKVKLQGKEVGVYEALKDDSWLKGEFVTTVQQRGAAVIKARKLSSAMSAAKAICDHVRDIWFGTPEGEFVSMGVISDGNSYGVPDDLLYSFPVVIKNKTWKFVEGLPINDFSREKMDLTAKELTEEKESAFEFLSSA
# Biological target: the molecule itself
# Assay: SAXS
row,Protein,stoichiometry N
1,B1,2
2,B2,2

# Source: article doi:10.1101/2025.07.15.665002 (bioRxiv, 2025)
